Data as given in PMC11677724, “Preclinical Study of a Dual-Target Molecular Probe Labeled with ^68Ga Targeting SSTR2 and FAP” (Pharmaceuticals, 2024).
Like-named read-outs stand apart in the source and are kept apart here.

Assays:
[1] = Partition coefficient (log P), n-octanol/PBS; format: physicochemical; settings: shake-flask n-octanol/PBS (0.1 mol/L, pH 7.4), 14.8 MBq in 100 µL, vortexed 2 min at room temperature, centrifuged 3000 rpm 5 min, γ-counter CPM; mean ± SD, repeated three times; read-out: Log p
Experimental: In a 15 mL centrifuge tube, 2.9 mL of PBS (0.1 mol/L, pH = 7.4) and 3 mL of n-octanol were added. [^68Ga]Ga-TATE-46, [^68Ga]Ga-DOTA-TATE, or [^68Ga]Ga-FAPI-46 (14.8 MBq, 100 µL) were added to each tube. The mixture was vortexed at room temperature for 2 min to ensure thorough blending, and then centrifuged at room temperature (effective centrifuge radius 12 cm, 3000 rpm) for 5 min. After allowing sufficient time for phase separation, three 500 µL samples were taken from each layer. The radioactivity of each sample was measured using a γ-counter (count per minute, CPM), and log p = log (n-octanol CPM/water CPM) was calculated. The experiment was repeated three times.

[2] = Ex vivo biodistribution in NCI-H727 tumor-bearing mice; settings: female, BALB/c nude, mouse, in vivo, 1.48 MBq, total radioactivity, γ-counter, mean ± SD, n=3; for tissue uptake at 0.5 h: 0.5 h p.i.; for tissue uptake at 1 h: 1 h p.i.; for tissue uptake at 2 h: 2 h p.i.; for tissue uptake at 4 h: 4 h p.i.
Experimental: (§1) Female BALB/c nude mice were obtained from Charles River Laboratories (Beijing, China). […] Approximately 5 × 10^6 cells were implanted into the right shoulder of each mouse to establish an NCI-H727 tumor model and Mc38 tumor model. Once the tumor volume reached 200–300 mm^3, the mice were used for imaging or biodistribution studies. All animal experiments were carried out in accordance with the National Institutes of Health Guidelines for the Care and Use of Laboratory Animals and were approved by the Animal Protection and Utilization Committee of the General Hospital of the PLA (Approval No.: S2023-209-1).
(§2) The NCI-H727 tumor-bearing mice were randomly assigned to four groups (with three mice in each group) and were injected with [^68Ga]Ga-TATE-46 (1.48 MBq, 100 µL). The mice were put to death at 0.5, 1, 2, and 4 h post-injection (p.i.). The tissues and organs of concern were gathered, weighed, and measured for radioactivity using a γ-counter. Additionally, [^68Ga]Ga-DOTA-TATE and [^68Ga]Ga-FAPI-46 were used as control groups in the biodistribution study of the NCI-H727 tumor model at 1 h p.i. After performing time decay correction, the radiotracer uptake in each tissue and organ was calculated as %ID/g.

[3] = tested on: NCI-H727 tumor-bearing mice; assay: as above; settings: biodistribution in NCI-H727 tumor-bearing mice
Experimental: as §1, §2

[4] = Micro PET imaging with ROI quantification, MC38 tumor-bearing mice; format: in vivo; settings: female, BALB/c nude, mouse, iv, total radioactivity, 1 h p.i., 5.55–7.4 MBq tail vein, MC38 tumors (SSTR2/FAP, negative), read-out: uptake in MC38 tumors (ROI quantitative analysis of PET images)
Experimental: as §1
(§3) Each set of NCI-H727 tumor xenograft models (n = 3) was administered with [^68Ga]Ga-TATE-46, [^68Ga]Ga-DOTA-TATE, or [^68Ga]Ga-FAPI-46 (5.55–7.4 MBq, 150 µL/mouse) through the tail vein. Static PET scans were performed at 30 min, 1 h, 2 h, and 4 h after injection for 10 min each. In blocking studies, unlabeled precursors (FAPI-46, DOTA-TATE, FAPI-46 + DOTA-TATE, 10 mg/kg) were co-injected with [^68Ga]Ga-TATE-46. After image acquisition, the images were reconstructed using the three-dimensional ordered subset expectation maximization (3D-OSEM) algorithm and analyzed on the Recon/Avator-s-10 workstation. The percentage of injected dose per gram of tissue (%ID/g) was determined by delineating regions of interest.

[5] = tested on: NCI-H727 tumor-bearing mice; assay: Micro PET imaging with ROI quantification and blocking, NCI-H727 tumor-bearing mice; format: in vivo, BALB/c nude mice
Experimental: as §1, §3

[6] = tested on: MC38 cells (SSTR2/FAP, negative); assay: Cell uptake in MC38 cells (negative control); format: cell-based; settings: 1.48×10^4 Bq/well, all time points, all p < 0.001
Experimental: The NCI-H727 and Mc38 cell lines were supplied by the Stem Cell Bank of the Chinese Academy of Sciences and were cultivated in Roswell Park Memorial Institute (RPMI-1640) medium with 10% (v/v) fetal bovine serum (FBS) at 37 °C with 5% CO2. All cells were cultured until they reached 80–90% confluence before undergoing trypsinization.
In blocking experiments, an excessive amount of unlabeled FAPI-46, DOTA-TATE, or FAPI-46 + DOTA-TATE (10 µg/well) was added as an inhibitor along with [^68Ga]Ga-TATE-46 to the cells. After 1 h, the cells were processed using the same method. Finally, the cell lysates were gathered, and the radioactivity was measured using a γ-counter. Mc38 cells were used as a negative control, with only [^68Ga]Ga-TATE-46 (1.48 × 10^4 Bq/well, 100 µL) added, and the rest of the procedure was followed as described above.

[7] = NCI-H727 tumor, read-out: Biodistribution, Tumor (tumor uptake)
[8] = NCI-H727 tumor-bearing mice, read-out: Biodistribution, Blood
[9] = NCI-H727 tumor-bearing mice, read-out: Biodistribution, Bone
[10] = NCI-H727 tumor-bearing mice, read-out: Biodistribution, Brain
[11] = NCI-H727 tumor-bearing mice, read-out: Biodistribution, Heart
[12] = NCI-H727 tumor-bearing mice, read-out: Biodistribution, Intestine
[13] = NCI-H727 tumor-bearing mice, read-out: Biodistribution, Kidney
[14] = NCI-H727 tumor-bearing mice, read-out: Biodistribution, Liver
[15] = NCI-H727 tumor-bearing mice, read-out: Biodistribution, Lung
[16] = NCI-H727 tumor-bearing mice, read-out: Biodistribution, Muscle
[17] = NCI-H727 tumor-bearing mice, read-out: Biodistribution, Spleen
[18] = NCI-H727 tumor-bearing mice, read-out: Biodistribution, Stomach

C[C@@H](O)[C@H](NC(=O)[C@@H]1CSSC[C@H](NC(=O)[C@@H](Cc2ccccc2)NC(=O)CCCCCNC(=O)CCCCCNC(=O)[C@H](Cc2ccccc2)NC(=O)C(CCC(=O)N[C@@H](Cc2ccccc2)C(=O)NCCCCCC(=O)NCCCCCC(=O)N2CCN(CCCN(C)c3ccc4nccc(C(=O)NCC(=O)N5CC(F)(F)C[C@H]5C#N)c4c3)CC2)NC(=O)CN2CCN(CC(=O)O)CCN(CC(=O)O)CCN(CC(=O)O)CC2)C(=O)N[C@@H](Cc2ccc(O)cc2)C(=O)N[C@H](Cc2c[nH]c3ccccc23)C(=O)N[C@@H](CCCCN)C(=O)N[C@@H]([C@@H](C)O)C(=O)N1)C(=O)O (stereo partly drawn) [[^68Ga]Ga-TATE-46, metal not drawn]
logD [1]: -0.2 ± 0.05
tissue uptake at 0.5 h [2, 7]: 3.56 ± 0.69 %ID/g
tissue uptake at 0.5 h [2, 8]: 13.5 ± 2.03 %ID/g
tissue uptake at 0.5 h [2, 9]: 4.84 ± 0.25 %ID/g
tissue uptake at 0.5 h [2, 10]: 0.37 ± 0.06 %ID/g
tissue uptake at 0.5 h [2, 11]: 4.71 ± 0.3 %ID/g
tissue uptake at 0.5 h [2, 12]: 4.58 ± 2.16 %ID/g
tissue uptake at 0.5 h [2, 13]: 23.9 ± 8.92 %ID/g
tissue uptake at 0.5 h [2, 14]: 10 ± 2.51 %ID/g
tissue uptake at 0.5 h [2, 15]: 7.03 ± 1.58 %ID/g
tissue uptake at 0.5 h [2, 16]: 2.4 ± 0.48 %ID/g
tissue uptake at 0.5 h [2, 17]: 4.48 ± 0.72 %ID/g
tissue uptake at 0.5 h [2, 18]: 6.84 ± 0.73 %ID/g
tissue uptake at 1 h [2, 7]: 7.53 ± 1.13 %ID/g
tissue uptake at 1 h [2, 8]: 11.3 ± 2.53 %ID/g
tissue uptake at 1 h [2, 9]: 4.8 ± 1.08 %ID/g
tissue uptake at 1 h [2, 10]: 0.36 ± 0.03 %ID/g
tissue uptake at 1 h [2, 11]: 4.15 ± 0.83 %ID/g
tissue uptake at 1 h [2, 12]: 3.74 ± 0.72 %ID/g
tissue uptake at 1 h [2, 13]: 37 ± 3.89 %ID/g
tissue uptake at 1 h [2, 14]: 10.5 ± 2.84 %ID/g
tissue uptake at 1 h [2, 15]: 5.51 ± 0.97 %ID/g
tissue uptake at 1 h [2, 16]: 2.39 ± 0.49 %ID/g
tissue uptake at 1 h [2, 17]: 4.01 ± 0.79 %ID/g
tissue uptake at 1 h [2, 18]: 6.68 ± 0.95 %ID/g
tissue uptake at 2 h [2, 7]: 7.08 ± 0.88 %ID/g
tissue uptake at 2 h [2, 8]: 6.13 ± 0.61 %ID/g
tissue uptake at 2 h [2, 9]: 4.65 ± 0.87 %ID/g
tissue uptake at 2 h [2, 10]: 0.23 ± 0.04 %ID/g
tissue uptake at 2 h [2, 11]: 2.41 ± 0.35 %ID/g
tissue uptake at 2 h [2, 12]: 2.85 ± 1.12 %ID/g
tissue uptake at 2 h [2, 13]: 26.5 ± 4.77 %ID/g
tissue uptake at 2 h [2, 14]: 8.4 ± 0.12 %ID/g
tissue uptake at 2 h [2, 15]: 3.67 ± 0.68 %ID/g
tissue uptake at 2 h [2, 16]: 2.36 ± 0.14 %ID/g
tissue uptake at 2 h [2, 17]: 3.05 ± 0.38 %ID/g
tissue uptake at 2 h [2, 18]: 6.18 ± 0.43 %ID/g
tissue uptake at 4 h [2, 7]: 6.48 ± 1.82 %ID/g
tissue uptake at 4 h [2, 8]: 4.09 ± 0.21 %ID/g
tissue uptake at 4 h [2, 9]: 4.49 ± 0.06 %ID/g
tissue uptake at 4 h [2, 10]: 0.24 ± 0.02 %ID/g
tissue uptake at 4 h [2, 11]: 1.9 ± 0.09 %ID/g
tissue uptake at 4 h [2, 12]: 1.82 ± 1.11 %ID/g
tissue uptake at 4 h [2, 13]: 22.4 ± 6.23 %ID/g
tissue uptake at 4 h [2, 14]: 8.08 ± 0.87 %ID/g
tissue uptake at 4 h [2, 15]: 2.69 ± 0.17 %ID/g
tissue uptake at 4 h [2, 16]: 2.36 ± 0.32 %ID/g
tissue uptake at 4 h [2, 17]: 3.04 ± 0.09 %ID/g
tissue uptake at 4 h [2, 18]: 5.05 ± 0.01 %ID/g
tumor/muscle ratio [3]: 3–4
tissue uptake at 1 h [4]: 2.05 ± 0.09 %ID/g
tumor uptake in NCI-H727 tumors (PET ROI) compared with [68Ga]Ga-FAPI-46 and [68Ga]Ga-DOTA-TATE ([5]; 5.55–7.4 MBq, 30 min-4 h p.i., n = 3, p < 0.001): significantly higher
tumor uptake (PET) on co-injection with blocking agents DOTA-TATE, FAPI-46, or DOTA-TATE + FAPI-46 ([5]; blockers 10 μg/g each, NCI-H727 tumors, 1 h p.i., all p < 0.001): significantly reduced
cellular uptake in MC38 cells compared to NCI-H727 cells [6]: significantly lower
